Laboratory results from PMC8641065 (The New phytologist, 2021).

Molecular target: T1, HY5-S36A-GFP (Arabidopsis thaliana, UniProt O24646 1-168, S36A)
T1 sequence (looked up): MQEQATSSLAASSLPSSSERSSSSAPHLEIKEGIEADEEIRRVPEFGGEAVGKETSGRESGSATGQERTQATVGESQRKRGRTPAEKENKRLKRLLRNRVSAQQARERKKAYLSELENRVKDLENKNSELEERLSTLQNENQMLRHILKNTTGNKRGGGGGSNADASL
Assay: co-IP

fold of COP1 co-immunoprecipitated, against the HY5-S36D-GFP line: 4 fold
B1: COP1 (constitutive photomorphogenic1), endogenous (natural protein, UniProt P43254 1-675, looked up)
chain: MEEISTDPVVPAVKPDPRTSSVGEGANRHENDDGGSGGSEIGAPDLDKDLLCPICMQIIKDAFLTACGHSFCYMCIITHLRNKSDCPCCSQHLTNNQLYPNFLLDKLLKKTSARHVSKTASPLDQFREALQRGCDVSIKEVDNLLTLLAERKRKMEQEEAERNMQILLDFLHCLRKQKVDELNEVQTDLQYIKEDINAVERHRIDLYRARDRYSVKLRMLGDDPSTRNAWPHEKNQIGFNSNSLSIRGGNFVGNYQNKKVEGKAQGSSHGLPKKDALSGSDSQSLNQSTVSMARKKRIHAQFNDLQECYLQKRRQLADQPNSKQENDKSVVRREGYSNGLADFQSVLTTFTRYSRLRVIAEIRHGDIFHSANIVSSIEFDRDDELFATAGVSRCIKVFDFSSVVNEPADMQCPIVEMSTRSKLSCLSWNKHEKNHIASSDYEGIVTVWDVTTRQSLMEYEEHEKRAWSVDFSRTEPSMLVSGSDDCKVKVWCTRQEASVINIDMKANICCVKYNPGSSNYIAVGSADHHIHYYDLRNISQPLHVFSGHKKAVSYVKFLSNNELASASTDSTLRLWDVKDNLPVRTFRGHTNEKNFVGLTVNSEYLACGSETNEVYVYHKEITRPVTSHRFGSPDMDDAEEEAGSYFISAVCWKSDSPTMLTANSQGTIKVLVLAA
